Measured values: patent US8575110B2, “Peptidic nanoparticles as drug delivery and antigen display systems” (Alpha-O Peptides G, priority 2003, dated 2013)

Assay: Analytical ultracentrifugation (AUC) of assembled peptidic nanoparticles
Assay type: physicochemical

B1: Trimer(Foldon)Cys11—Linker—COMP (protein)
chain: GSGYIPEAPRCGQAYVRKDGEWVLLSTFLGGSGLAPQMLRELQETNAALQDVRELLRQQVKQITFLKNTVMECDACG
- No. of monomers (Example 5 preparation 1 (dissolved directly, 2 mM DTT), 0.3 mg/ml): 10.1
- No. of monomers (Example 5 preparation 1 (dissolved directly, 2 mM DTT), 0.6 mg/ml): 9.8
- No. of monomers (Example 5 preparation 1 (dissolved directly, 2 mM DTT), 1.2 mg/ml): 11.3
- No. of monomers (Example 5 preparation 2 (refolded from 8 M urea), 0.24 mg/ml): 15.1
- No. of monomers (Example 5 preparation 2 (refolded from 8 M urea), 0.4 mg/ml): 14.3
- No. of monomers (Example 5 preparation 2 (refolded from 8 M urea), 1.2 mg/ml): 14.8
- No. of monomers (Example 5 preparation 2 (refolded from 8 M urea), concentration independent, one even unit): 15

B2: Trimer(Foldon)Cys11—COMP (protein)
chain: GSGYIPEAPRCGQAYVRKDGEWVLLSTFLGGLAPQMLRELQETNAALQDVRELLRQQVKQITFLKNTVMECDACG
notes: Recombinant foldon, two-glycine linker, COMP peptide; residue Asp 11 replaced by a cystein residue
- No. of monomers (Example 4 preparation 1 (no DTT), 0.2 mg/ml): 9.0
- No. of monomers (Example 4 preparation 2 (2 mM DTT), 0.2 mg/ml): 11.2
